Assays:
[1] = target: T1, human BCMA on BCMA positive cells (human, UniProt Q02223 1-184); experiment: cell-based or functional assay
T1 sequence (looked up): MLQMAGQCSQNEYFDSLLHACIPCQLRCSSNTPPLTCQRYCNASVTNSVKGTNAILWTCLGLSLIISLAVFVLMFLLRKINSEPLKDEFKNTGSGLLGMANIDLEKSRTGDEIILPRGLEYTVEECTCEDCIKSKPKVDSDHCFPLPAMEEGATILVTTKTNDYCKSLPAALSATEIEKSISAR

[2] = target: T2, cynomolgus monkey CD3 on cynomolgus monkey T cells (cynomolgus monkey, UniProt Q95LI5 22-198; Q95LI8 22-171; Q95LI7 23-181); experiment: flow cytometry on cynomolgus monkey T cells
T2 construct: Native CD3 on T cells
T2 sequence (Q95LI5 22-198 limits assumed, chain 1 of 3): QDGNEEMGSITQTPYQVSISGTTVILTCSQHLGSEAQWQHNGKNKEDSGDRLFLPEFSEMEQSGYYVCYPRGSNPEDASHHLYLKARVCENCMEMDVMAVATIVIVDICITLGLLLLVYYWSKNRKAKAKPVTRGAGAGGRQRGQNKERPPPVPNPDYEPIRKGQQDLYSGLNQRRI
T2 sequence (Q95LI8 22-171 limits assumed, chain 2 of 3): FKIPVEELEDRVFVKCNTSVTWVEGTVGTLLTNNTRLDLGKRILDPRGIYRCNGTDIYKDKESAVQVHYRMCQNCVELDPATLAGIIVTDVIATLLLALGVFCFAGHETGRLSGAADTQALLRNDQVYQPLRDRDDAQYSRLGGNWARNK
T2 sequence (Q95LI7 23-181 limits assumed, chain 3 of 3): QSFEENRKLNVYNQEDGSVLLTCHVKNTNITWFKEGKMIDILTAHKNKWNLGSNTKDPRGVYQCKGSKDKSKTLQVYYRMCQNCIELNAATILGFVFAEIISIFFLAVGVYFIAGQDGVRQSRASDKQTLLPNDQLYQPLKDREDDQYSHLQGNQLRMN
Experimental: Centrifuge to remove supernatant, wash the plate twice with 1% DPBS, add 100 μl 1% DPBS to each well for resuspension, and detect the signal intensity by flow cytometry.

B1: bispecific antibody AP163 (bispecific antibody)
chain: QVQLVQSGAEVKKPGSSVKVSCKASGGTFSNYWMHWVRQAPGQGLEWMGATYRGHSDTYYNQKFKGRVTITADKSTSTAYMELSSLRSEDTAVYYCARGAIYDGYDVLDNWGQGTLVTVSSGGGGSGGGGSGGGGSDIQMTQSPSSLSASVGDRVTITCSASQDISNYLNWYQQKPGKAPKLLIYYTSNLHSGVPSRFSGSGSGTDFTLTISSLQPEDFATYYCQQYRKLPWTFGQGTKLEIKGGGGGGSGGGGSGGGGSSSSSKAPPPSEVQLLESGGGLVQPGGSLKLSCAASGFTFNTYAMNWVRQAPGKGLEWVARIRSKYNNYATYYADSVKDRFTISRDDSKNTAYLQMNNLKTEDTAVYYCVRHGNFGNSYVSWFAYWGQGTLVTVSSGGGGSGGGGSGGGGSELVVTQEPSLTVSPGGTVTLTCRSSTGAVTTSNYANWVQQKPGQAPRGLIGGTNKRAPGTPARFSGSLLGGKAALTLSGVQPEDEAEYYCALWYSNLWVFGGGTKLTVLDKTHTCPPCPAPEAAGGPSVFLFPPKPKDQLMISRTPEVTCVVVDVSHEDPEVKFNWYVDGVEVHNAKTKPREEQYASTYRVVSVLTVLHQDWLNGKEYKCKVSNKALPASIEKTISKAKGQPREPQVYTLPPSRDELTKNQVSLTCLVKGFYPSDIAVEWESNGQPENNYKTTPPVLDSDGSFFLYSKLTVDKSRWQQGNVFSCSVLHEALHNHYTQKSLSLSPG
notes: human IgG1 Fc with L234A, L235A, T250Q, N297A, P331S, M428L and K447 deleted (EU); also called anti-BCMA×CD3 bispecific antibody
EC50 of activation of NFAT-Jurkat reporter cells (luciferase) in the presence of H929 cells [1]: 3.16 ng/mL
EC50 of cynomolgus monkey T cells killing NCI-H929 tumor cells mediated by AP163 [1]: 0.278 pM
EC50 of human T cells killing NCI-H929 tumor cells mediated by AP163 [1]: 0.239 pM
binding result [2]: binds
